These results are taken from paper PMC6704107 (2019).

Numbering of substitutions follows the chain as printed.

In one experiment the target is T1, AAVR PKD1-5 D435A (UniProt Q8IZA0-1 1-1049, D435A).
T1 sequence: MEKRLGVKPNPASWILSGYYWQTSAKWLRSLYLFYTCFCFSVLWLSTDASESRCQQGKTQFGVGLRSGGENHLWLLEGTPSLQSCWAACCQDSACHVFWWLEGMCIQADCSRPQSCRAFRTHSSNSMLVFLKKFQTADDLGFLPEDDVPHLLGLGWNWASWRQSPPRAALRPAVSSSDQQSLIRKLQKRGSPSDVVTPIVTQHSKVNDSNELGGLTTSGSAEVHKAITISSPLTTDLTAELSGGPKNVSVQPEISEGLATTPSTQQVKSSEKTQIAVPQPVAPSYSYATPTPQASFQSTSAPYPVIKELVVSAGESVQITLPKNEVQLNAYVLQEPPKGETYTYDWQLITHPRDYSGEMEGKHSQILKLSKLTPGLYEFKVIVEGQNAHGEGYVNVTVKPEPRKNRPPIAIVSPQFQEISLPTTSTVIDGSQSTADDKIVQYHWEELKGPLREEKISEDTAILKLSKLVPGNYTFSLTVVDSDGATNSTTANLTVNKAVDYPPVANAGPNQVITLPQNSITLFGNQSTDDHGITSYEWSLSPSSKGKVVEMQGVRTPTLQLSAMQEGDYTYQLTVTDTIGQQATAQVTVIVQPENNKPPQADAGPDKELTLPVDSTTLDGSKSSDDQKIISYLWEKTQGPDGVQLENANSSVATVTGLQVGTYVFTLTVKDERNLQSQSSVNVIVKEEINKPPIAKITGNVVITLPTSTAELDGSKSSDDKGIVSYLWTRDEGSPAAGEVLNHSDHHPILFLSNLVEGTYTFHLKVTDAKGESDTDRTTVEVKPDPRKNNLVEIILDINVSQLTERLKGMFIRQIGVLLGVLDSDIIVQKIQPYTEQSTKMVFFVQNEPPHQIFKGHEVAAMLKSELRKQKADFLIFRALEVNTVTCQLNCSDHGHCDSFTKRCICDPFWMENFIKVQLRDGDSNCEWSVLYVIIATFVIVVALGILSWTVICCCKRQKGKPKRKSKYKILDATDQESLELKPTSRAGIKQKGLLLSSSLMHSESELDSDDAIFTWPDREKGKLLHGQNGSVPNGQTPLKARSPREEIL
The experiment is described as follows: SPR. (In general: SPR reads the build-up and loss of mass on a sensor chip optically.)

The next experiment addresses T2, AAVR PKD1-5 S425A (UniProt Q8IZA0-1 1-1049, S425A).
T2 sequence: T1 sequence with S425A, A435D
The experiment is described as follows: SPR.

B1: Adeno-associated virus 1 (AAV1) particle, wild-type capsid (complex)
chain: MAADGYLPDWLEDNLSEGIREWWDLKPGAPKPKANQQKQDDGRGLVLPGYKYLGPFNGLDKGEPVNAADAAALEHDKAYDQQLKAGDNPYLRYNHADAEFQERLQEDTSFGGNLGRAVFQAKKRVLEPLGLVEEGAKTAPGKKRPVEQSPQEPDSSSGIGKTGQQPAKKRLNFGQTGDSESVPDPQPLGEPPATPAAVGPTTMASGGGAPMADNNEGADGVGNASGNWHCDSTWLGDRVITTSTRTWALPTYNNHLYKQISSASTGASNDNHYFGYSTPWGYFDFNRFHCHFSPRDWQRLINNNWGFRPKRLNFKLFNIQVKEVTTNDGVTTIANNLTSTVQVFSDSEYQLPYVLGSAHQGCLPPFPADVFMIPQYGYLTLNNGSQAVGRSSFYCLEYFPSQMLRTGNNFTFSYTFEEVPFHSSYAHSQSLDRLMNPLIDQYLYYLNRTQNQSGSAQNKDLLFSRGSPAGMSVQPKNWLPGPCYRQQRVSKTKTDNNNSNFTWTGASKYNLNGRESIINPGTAMASHKDDEDKFFPMSGVMIFGKESAGASNTALDNVMITDEEEIKATNPVATERFGTVAVNFQSSSTDPATGDVHAMGALPGMVWQDRDVYLQGPIWAKIPHTDGHFHPSPLMGGFGLKNPPPQILIKNTPVPANPPAEFSATKFASFITQYSTGQVSVEIEWELQKENSKRWNPEVQYTSNYAKSANVDFTVDNNGLYTEPRPIGTRYLTRPL
As to B1, the Kd amounted to 13.6 µM with AAVR PKD1-5 D435A and 3.88 µM in the experiment with AAVR PKD1-5 S425A.

In general, Kd refers to the free concentration of one partner at which half of the binding sites on the other are occupied at equilibrium, for simple one-to-one binding. Lower therefore signals a tighter complex.
